# Measured values from US20250026836A1 (UCB, published 2025).
# B1: Afucosylated HLA-G02 (antibody, human IgG1, kappa)
# heavy: not shown
# light: AIVLTQSPSSLSASVGDRVTITCQASQSIYSYLSWYQQKPGKAPKLLIYKASTLASGVPSRFSGSGSGTDFTLTISSLQPEDFATYYCQNHWNVGGNGWPFGGGTKVEIKRTVAAPSVFIFPPSDEQLKSGTASVVCLLNNFYPREAKVQWKVDNALQSGNSQESVTEQDSKDSTYSLSSTLTLSKADYEKHKVYACEVTHQGLSSPVTKSFNRGEC
# modifications: afucosylated IgG1 (produced in FUT8 knock-out CHO-SXE cells)
# notes: also called aF HLA-G02; Afucosylated HLA-02
# B2: HLA-G02 (humanised VR12389gL2gH16 IgG1, conventional i.e. fucosylated) (antibody)
# heavy: not shown
# light: B1 light
# notes: also called conventional HLA-G02
# How the values were obtained:
# [1] = molecular target: T1, HLA-G naturally expressed on human choriocarcinoma trophoblastic JEG3 cells (human, UniProt P17693 25-338; P61769 21-119); assay: flow cytometry on JEG3 WT cells, IgG1 100-0.05 nM
# T1 construct: whole, on cells; also called JEG3 WT
# [2] = molecular target: T1, HLA-G naturally expressed on human …; assay: flow cytometry, blocking of ILT2rbFc binding to JEG3 cells
# [3] = molecular target: human HLA-G and β2 microglobulin stably expressed on the HLAG-β2m-Reh cell line (human, UniProt P17693 25-338; P61769 21-119); assay: cell-based or functional assay
# [4] = molecular target: HLA-F consensus sequence, co-expressed with B2m on HEK293 cells (human, UniProt P30511 22-346; P61769 21-119); assay: flow cytometry on HEK293 cells transfected with HLA-F consensus/B2m
# [5] = molecular target: HLA-B consensus sequence, co-expressed with B2m on HEK293 cells (human, UniProt P01889 25-362 at identity 0.96); P61769 21-119); assay: flow cytometry on HEK293 cells transfected with HLA-B consensus/B2m
# [6] = molecular target: T2, HLA-G wild type, membrane-bound, co-expressed with B2m on transfected cells (HEK293 / HCT116) (human, UniProt P17693 25-338; P61769 21-119); assay: flow cytometry, blocking of ILT2rbFc binding to HLA-G/B2m HEK293 cells
# T2 construct: Same construct transiently expressed on HEK293 (Expi293) or HCT116 cells; the cell line is named under assay; also called HLA-G WT; HEK-HLAG
# [7] = molecular target: T1, HLA-G naturally expressed on human …; assay: flow cytometry, blocking of ILT2rbFc binding to JEG3 cells, large volume
# [8] = molecular target: HLA-E consensus sequence, co-expressed with B2m on HEK293 cells (human, UniProt P13747 22-358; P61769 21-119); assay: flow cytometry on HEK293 cells transfected with HLA-E consensus/B2m
# [9] = molecular target: HLA-C consensus sequence, co-expressed with B2m on HEK293 cells (human, UniProt P10321 25-366; P61769 21-119); assay: flow cytometry on HEK293 cells transfected with HLA-C consensus/B2m
# [10] = molecular target: HLA-A consensus sequence, co-expressed with B2m on HEK293 cells (human, UniProt P04439 25-365; P61769 21-119); assay: flow cytometry on HEK293 cells transfected with HLA-A consensus/B2m
# [11] = molecular target: T1, HLA-G naturally expressed on human …; assay: flow cytometry on JEG3 cells, 1.5 ml IgG solution, geometric mean of three independent assays; geometric mean of three independent assays
# [12] = molecular target: T3, Human HLA-G ECD + B2m (soluble, AVItev10His tag) (human); assay: SPR, 25 C, hIgG1 captured via anti-human Fc, HLA-G ECD+B2m titrated from 50 nM, another assay
# T3 construct: also called soluble HLA-G
# [13] = molecular target: T2, HLA-G wild type, membrane-bound, …; assay: flow cytometry, blocking of ILT4rbFc binding to HLA-G/B2m HCT116 cells
# [14] = molecular target: T2, HLA-G wild type, membrane-bound, …; assay: flow cytometry on HEK293 cells transfected with HLA-G/B2m
# [15] = molecular target: T3, Human HLA-G ECD + B2m (soluble, …); assay: SPR, 25 C, hIgG1 captured via anti-human Fc, HLA-G ECD+B2m titrated from 50 nM
# [16] = molecular target: T3, Human HLA-G ECD + B2m (soluble, …); assay: SPR, 25 C, hIgG1 captured via anti-human Fc, HLA-G ECD+B2m 50 nM as analyte, first experiment
# [17] = molecular target: T3, Human HLA-G ECD + B2m (soluble, …); assay: SPR, 25 C, hIgG1 captured via anti-human Fc, HLA-G ECD+B2m 50 nM as analyte, second experiment
# [18] = molecular target: T1, HLA-G naturally expressed on human …; assay: flow cytometry on JEG3 cells, 1.5 ml IgG1 solution, 10-0.0005 nM
binder,measurement,setting,value
B1,EC50,[1],0.2 nM
same,IC50,[2],0.51 nM
same,"EC50 (nM) of CDC, lot 1",[3],2.51 nM
same,"EC50 (nM) of CDC, lot 2",[3],3.29 nM
same,"EC50 (nM) of CDC, lot 3",[3],3.7 nM
same,binding result,[4],no binding (tested: IgG up to 100 nM)
same,binding result,[5],no binding (tested: IgG up to 100 nM)
same,IC50,[6],0.83 nM
same,IC50,[7],0.021 nM
same,binding result,[8],no binding (tested: IgG up to 100 nM)
same,binding result,[9],no binding (tested: IgG up to 100 nM)
same,binding result,[10],no binding (tested: IgG up to 100 nM)
same,EC50,[11],0.021 nM
same,Kd,[12],4.4 nM
same,IC50,[13],1.38 nM
same,EC50,[14],0.92 nM
B2,EC50,[1],0.43 nM
same,Kd,[15],5.09 nM
same,IC50,[2],0.53 nM
same,Kd,[16],4.78 nM
same,binding result,[4],no binding (tested: IgG up to 100 nM)
same,binding result,[5],no binding (tested: IgG up to 100 nM)
same,IC50,[6],1.37 nM
same,binding result,[8],no binding (tested: IgG up to 100 nM)
same,binding result,[9],no binding (tested: IgG up to 100 nM)
same,binding result,[10],no binding (tested: IgG up to 100 nM)
same,Kd,[17],5.42 nM
same,Kd,[12],4.3 nM
same,IC50,[13],1.31 nM
same,Kd,[18],0.02 nM
same,EC50,[14],1.65 nM
